Publication PMC9974412

Target: HIV-1 Env, strain HXB2 (HIV-1) (UniProt P04578)

5-Helix (designed binder)
IC50 of neutralisation of HXB2 Env-pseudotyped lentivirus, HOS-CD4-CCR5 cells: 8.2 nM
